Tests used:
[1] = target: T1, Human ROBO2 KSR mutant overexpressed on HEK293 cells (human, UniProt Q9HCK4 22-1378); assay: mutagenesis study
T1 construct: R100K and K102R already in the entry
T1 sequence: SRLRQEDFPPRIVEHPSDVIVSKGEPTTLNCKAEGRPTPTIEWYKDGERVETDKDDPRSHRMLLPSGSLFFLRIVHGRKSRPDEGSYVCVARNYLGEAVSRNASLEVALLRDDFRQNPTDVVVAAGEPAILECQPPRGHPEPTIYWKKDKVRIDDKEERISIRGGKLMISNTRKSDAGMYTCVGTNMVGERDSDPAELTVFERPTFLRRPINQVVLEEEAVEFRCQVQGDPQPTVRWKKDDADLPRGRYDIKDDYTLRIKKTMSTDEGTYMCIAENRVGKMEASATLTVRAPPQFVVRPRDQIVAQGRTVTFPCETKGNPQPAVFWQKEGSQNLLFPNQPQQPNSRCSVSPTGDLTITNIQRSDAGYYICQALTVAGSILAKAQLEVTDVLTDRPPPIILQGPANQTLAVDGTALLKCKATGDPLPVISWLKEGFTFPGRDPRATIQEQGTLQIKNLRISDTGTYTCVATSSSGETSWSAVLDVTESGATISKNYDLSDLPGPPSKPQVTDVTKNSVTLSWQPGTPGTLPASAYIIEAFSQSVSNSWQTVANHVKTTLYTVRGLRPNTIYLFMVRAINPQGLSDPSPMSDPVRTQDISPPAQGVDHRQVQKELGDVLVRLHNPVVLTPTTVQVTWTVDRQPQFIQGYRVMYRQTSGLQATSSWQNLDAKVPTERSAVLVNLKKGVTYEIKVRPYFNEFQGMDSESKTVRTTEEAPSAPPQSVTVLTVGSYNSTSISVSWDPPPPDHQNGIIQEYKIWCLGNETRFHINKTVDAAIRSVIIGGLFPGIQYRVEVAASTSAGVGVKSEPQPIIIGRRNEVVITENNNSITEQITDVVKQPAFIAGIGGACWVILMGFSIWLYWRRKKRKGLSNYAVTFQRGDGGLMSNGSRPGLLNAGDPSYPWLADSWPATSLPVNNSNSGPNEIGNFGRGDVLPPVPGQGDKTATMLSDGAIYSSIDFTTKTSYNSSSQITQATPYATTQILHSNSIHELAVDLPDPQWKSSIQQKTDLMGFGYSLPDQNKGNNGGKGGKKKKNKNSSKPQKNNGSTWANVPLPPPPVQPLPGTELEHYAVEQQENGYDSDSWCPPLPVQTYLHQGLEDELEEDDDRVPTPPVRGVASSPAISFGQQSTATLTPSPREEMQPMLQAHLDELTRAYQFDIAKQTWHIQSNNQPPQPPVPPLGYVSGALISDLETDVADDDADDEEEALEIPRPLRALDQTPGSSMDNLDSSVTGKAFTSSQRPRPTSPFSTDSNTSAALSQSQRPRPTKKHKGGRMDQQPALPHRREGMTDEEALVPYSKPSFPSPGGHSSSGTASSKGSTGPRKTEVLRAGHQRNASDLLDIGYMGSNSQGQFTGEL

[2] = target: T1, Human ROBO2 KSR mutant overexpressed on …; assay: flow cytometry on HEK293 cells overexpressing the ROBO2-KSR mutant
Protocol: Binding of the antibodies was detected using a secondary fluorochrome conjugated anti-human IgG F(ab′)₂ antibody and samples were analyzed on a Fortessa cytometer (BD Biosciences). The fold ROBO2 selectivity was calculated as the geometric mean fluorescence intensity (Geo MFI) with ROBO2 cells/Geo MFI with ROBO1 cells. A fold change higher than 3 was considered to be ROBO2 specific (Table 2, Fold Selectivity). Some affinity matured clones had increased ROBO1 reactivity, for example Abcs 55, CTI-R2-10 and CTIR2-13.
Based upon several criteria, Abcs25 and Abcs35 were selected for further characterization. Using flow cytometry, improvement in the binding EC₅₀ to human ROBO2 relative to the parental 93H2 was evaluated. […] Using HEK293 cells overexpressing either cynomolgus monkey ROBO2 or rat ROBO2, the relative dose-dependent binding of 93H2, Abcs25 and Abcs35 was evaluated as described above. […] Association of ROBO2 Ig1-Ig2-His (ROBO2) was measured over 5 minutes and dissociation was followed for a period of 10 minutes.
RSK specificity for Abcs35, along with 93H2 and Abcs25, also was confirmed in a cell-based binding assay using flow cytometry. […] As described above in Example 3, dose-dependent binding was evaluated.

| Binder | binding result [1] | binding result [2] |
| --- | --- | --- |
| 93H2 (antibody, human IgG1, kappa, V domains shown, also called parental 93H2; 93H2 mAb) VH: EVQLVQSGAEVKKPGASVKVSCKASGYTFTGYYMHWVRQAPGQGLEWMGWINPNSGATNFPQKFQGRVTMTRDTSITTAYMDLSRLRSDDTAVYYCARESGDDAFDIWGQGTMVTVSS VL: not shown | no binding |  |
| Abcs35 (antibody, human IgG1, kappa, fully human IgG1; VH of Ab96 with VL of Ab123) heavy: EVQLVQSGAEVKKPGASVKVSCKASGYTFTGYYMHWVRQAPGQGLEWMGWINPKNGDTEFPQKFQGRVTMTRDTSITTAYMDLSRLRSDDTAVYYCARESGDDAFDIWGQGTMVTVSSASTKGPSVFPLAPSSKSTSGGTAALGCLVKDYFPEPVTVSWNSGALTSGVHTFPAVLQSSGLYSLSSVVTVPSSSLGTQTYICNVNHKPSNTKVDKKVEPKSCDKTHTCPPCPAPEAAGAPSVFLFPPKPKDTLMISRTPEVTCVVVDVSHEDPEVKFNWYVDGVEVHNAKTKPREEQYNSTYRVVSVLTVLHQDWLNGKEYKCKVSNKALPAPIEKTISKAKGQPREPQVYTLPPSREEMTKNQVSLTCLVKGFYPSDIAVEWESNGQPENNYKTTPPVLDSDGSFFLYSKLTVDKSRWQQGNVFSCSVMHEALHNHYTQKSLSLSPGK light: DIVMTQSPSSLSASVGDRVTITCRASQSISSYLNWYQQKPGKAPKLLIYAASSLQSGVPSRFSGSGSGTDFTLTISSLQPEDFATYYCQQSVGLFFGGGTKVEIKRTVAAPSVFIFPPSDEQLKSGTASVVCLLNNFYPREAKVQWKVDNALQSGNSQESVTEQDSKDSTYSLSSTLTLSKADYEKHKVYACEVTHQGLSSPVTKSFNRGEC |  | no binding |

Reference: US20200157212A1 (Pfizer, published 2020)
